{
  "source": "patent US20250043019A1",
  "about": "(Janssen / Centocor, published 2025)",
  "key": {"[1]": {"molecular_target": "T1, human CD79b on the cell surface (human, UniProt P40259 29-229)", "T1 sequence": "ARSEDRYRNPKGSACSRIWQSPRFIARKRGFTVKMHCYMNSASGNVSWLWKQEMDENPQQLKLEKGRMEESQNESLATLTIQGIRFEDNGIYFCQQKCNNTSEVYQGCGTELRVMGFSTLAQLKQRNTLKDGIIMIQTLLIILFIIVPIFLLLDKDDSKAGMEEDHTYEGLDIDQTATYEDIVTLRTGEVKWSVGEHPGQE", "test": "cell-based or functional assay"}, "[2]": {"molecular_target": "T2, cynomolgus monkey CD79b antigen (cynomolgus monkey)", "T2 construct": "also called cyno CD79b; CD9W1.001", "test": "SPR Biacore 8k, cyno CD79b injected up to 3000 nM", "in_short": "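Antibodies captured on anti-human Fc C1 chip, CD79b extracellular domain injected in HBSP+ at 25 °C; association 2 or 3 min, dissociation 30 min. Double-referenced sensorgrams fitted to a 1:1 Langmuir model for on-rate, off-rate and affinity.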"}, "[3]": {"molecular_target": "T1, human CD79b on the cell surface", "test": "cell-based or functional assay", "remark": "listed apart in the source"}, "[4]": {"molecular_target": "T1, human CD79b on the cell surface", "test": "cell-based or functional assay", "remark": "listed apart in the source"}, "[5]": {"molecular_target": "T1, human CD79b on the cell surface", "test": "flow cytometry, HBL-1 cells, 1 h 37 C", "description": "(§1) All cells were washed with BD stain buffer (BD Biosciences; Cat #554657), centrifuged at 1200 RPM for 3 minutes, with supernatant discarded. Cells were then stained for 20 minutes at 4° C. with BD stain buffer containing AlexaFluor 647 labeled anti-human IgG secondary antibody (Jackson Immuno; Cat #109-606-098) at a 1:200 dilution along with Aqua Fixable Live/Dead stain (Invitrogen; Cat #L34957) at a 1:400 dilution. All cells were washed with BD stain buffer (BD Biosciences; Cat #554657), centrifuged at 1200 RPM for 3 mins, with supernatant discarded. Cells were analyzed using Intellicyt (Sartorius) flow cytometer and mean fluorescent intensity (MFI) was generated using Forcyt software (Sartorius). MFI was graphed and EC50 values generated using GraphPad PRISM v.8. Dose response curves were generated by transforming the x axis values using the formula […]. Data was then graphed using non-linear regression curve fit analysis “log(agonist) vs. response-variable slope (four parameter)”."}, "[6]": {"molecular_target": "T1, human CD79b on the cell surface", "test": "flow cytometry, HBL-1 cells, 1 h 37 C; control row of Table 10, same value as Table 8", "description": "as §1"}, "[7]": {"molecular_target": "T1, human CD79b on the cell surface", "test": "cell-based or functional assay", "remark": "listed apart in the source"}, "[8]": {"molecular_target": "T1, human CD79b on the cell surface", "test": "cell-based or functional assay", "remark": "listed apart in the source"}, "[9]": {"molecular_target": "T3, recombinant extracellular domain of human CD79b, short isoform (human, UniProt P40259 29-159)", "T3 chain": "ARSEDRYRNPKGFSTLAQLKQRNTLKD", "test": "SPR Biacore 8k, antibody captured by anti-Fc, 25 C", "description": "(§2) General Protocol for SPR Affinity Assessment: Affinity assessment of the bispecific trispecific constructs against human CD79b were measure using recombinantly expressed extracellular domain of CD79b short and long isoforms (CD9W7.001 and CD9W8.001, respectively) by Surface Plasmon Resonance (SPR) using a Biacore 8k SPR system (Biacore) at 25° C. in HBSP+ buffer. Cross-reactivity of the same antibody panel was also assessed against cyno and mouse antigens (CD9W1.001 and CD9W105.001, respectively). Briefly, a C1 sensor chip was immobilized with anti-human Fc (target immobilization levels of >400 RU) using vendor recommended amino coupling protocol. […] The association and dissociation phases were measured for 2 or 3 minutes and 30 minutes, respectively.\n(§3) The raw binding sensorgrams were processed using Biacore Insight software (Biacore) by double-referencing and the processed sensorgrams were analyzed for cross-reactivity and fitted to a 1:1 Langmuir model to obtain on-rates, off-rates and affinities."}, "[10]": {"molecular_target": "T4, recombinant extracellular domain of human CD79b, long isoform (human, UniProt P40259 29-159)", "T4 construct": "also called hu CD79b long", "T4 sequence": "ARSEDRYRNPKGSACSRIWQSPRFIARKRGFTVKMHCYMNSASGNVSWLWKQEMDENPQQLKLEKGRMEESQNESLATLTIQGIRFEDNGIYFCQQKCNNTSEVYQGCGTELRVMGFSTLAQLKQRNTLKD", "test": "SPR Biacore 8k, antibody captured by anti-Fc, 25 C", "description": "as §2, §3"}, "[11]": {"molecular_target": "T1, human CD79b on the cell surface", "test": "cell-based or functional assay", "remark": "listed apart in the source"}, "[12]": {"molecular_target": "T1, human CD79b on the cell surface", "test": "flow cytometry, Carnaval cells, 1 h 37 C", "description": "as §1"}, "[13]": {"molecular_target": "T1, human CD79b on the cell surface", "test": "flow cytometry, Carnaval cells, 1 h 37 C; control row of Table 10, same value as Table 8", "description": "as §1"}},
  "data": [
    {"binder": "79C3B646 CD79bxCD3 bispecific antibody (bispecific antibody, human IgG1, lambda, L234A L235A, IgG1 bispecific; CD79b Fab arm plus CD3 scFv-Fc arm; also called 79C3B646 bsAb; CD9B330-N31S x CD3B2030-N106A) heavy: QVQLQQSGPGLVKPSQTLSLTCAISGDSVSSNSATWNWIRQSPSRGLEWLGRTYYRSKWYNDYTVSVKSRITINPDTSKNQFSLQLNSVTPEDTAVYYCTRVDIAFDYWGQGTLVTVSSASTKGPSVFPLAPSSKSTSGGTAALGCLVKDYFPEPVTVSWNSGALTSGVHTFPAVLQSSGLYSLSSVVTVPSSSLGTQTYICNVNHKPSNTKVDKKVEPKSCDKTHTCPPCPAPEAAGGPSVFLFPPKPKDTLMISRTPEVTCVVVSVSHEDPEVKFNWYVDGVEVHNAKTKPREEQYNSTYRVVSVLTVLHQDWLNGKEYKCKVSNKALPAPIEKTISKAKGQPREPQVYTLPPSREEMTKNQVSLSCAVKGFYPSDIAVEWESNGQPENNYKTTPPVLDSDGSFFLVSKLTVDKSRWQQGNVFSCSVMHEALHNRFTQKSLSLSPGK light: QTVVTQPPSVSEAPRQRVTISCSGSSSNIGNHGVNWYQQLPGKAPKLLIYNDDLLPSGVSDRFSGSTSGTSGSLAISGLQSEDEADYYCAAWDDSLNGVVFGGGTKLTVLGQPKAAPSVTLFPPSSEELQANKATLVCLISDFYPGAVTVAWKADSSPVKAGVETTTPSKQSNNKYAASSYLSLTPEQWKSHRSYSCQVTHEGSTVEKTVAPTECS EIVLTQSPATLSASPGERVTLSCSASSSVSYMNWYQQKPGQAPRRWIYDSSKLASGVPARFSGSGSGRDYTLTISSLEPEDFAVYYCQQWSRNPPTFGGGTKVEIKGGSEGKSSGSGSESKSTGGSQVQLVQSGAEVKKPGSSVKVSCKASGYTFTRSTMHWVKQAPGQGLEWIGYINPSSAYTNYNQKFQGRVTLTADKSTSTAYMELSSLRSEDTAVYYCASPQVHYDYAGFPYWGQGTLVTVSSEPKSSDKTHTCPPCPAPEAAGGPSVFLFPPKPKDTLMISRTPEVTCVVVSVSHEDPEVKFNWYVDGVEVHNAKTKPREEQYNSTYRVVSVLTVLHQDWLNGKEYKCKVSNKALPAPIEKTISKAKGQPREPQVYTLPPSREEMTKNQVSLWCLVKGFYPSDIAVEWESNGQPENNYKTTPPVLDSDGSFFLYSKLTVDKSRWQQGNVFSCSVMHEALHNHYTQKSLSLSPGK", "values": [
      {"measurement": "IC50, CARNAVAL killing, 72 h (FACS)", "setting": "[1]", "result": 0.29, "unit": "nM"},
      {"measurement": "IC50, HBL-1 killing, 72 h (FACS)", "setting": "[1]", "result": 0.73, "unit": "nM"},
      {"measurement": "IC50, OCI-LY10 killing, 72 h (FACS)", "setting": "[1]", "result": "> 100", "unit": "nM"},
      {"measurement": "Kd", "setting": "[2]", "result": "> 3000", "unit": "nM"},
      {"measurement": "IC50, T-cell killing of HBL-1 (Incucyte)", "setting": "[3]", "result": 0.257, "unit": "nM"},
      {"measurement": "IC50, T-cell killing of OCI-Ly10 (Incucyte)", "setting": "[4]", "result": 18.3, "unit": "nM"},
      {"measurement": "EC50", "setting": "[5]", "result": 97, "unit": "nM"},
      {"measurement": "EC50", "setting": "[6]", "result": 97, "unit": "nM"},
      {"measurement": "IC50, CARNAVAL killing (Incucyte)", "setting": "[7]", "result": 1.39, "unit": "nM"},
      {"measurement": "IC50, Daudi killing (Incucyte)", "setting": "[8]", "result": 0.597, "unit": "nM"},
      {"measurement": "Kd", "setting": "[9]", "result": 0.58, "unit": "nM"},
      {"measurement": "Kd", "setting": "[10]", "result": 0.022, "unit": "nM"},
      {"measurement": "Cmax (maximum cytotoxicity), donor 1", "setting": "[11]", "result": 9, "unit": "%"},
      {"measurement": "Cmax (maximum cytotoxicity), donor 2", "setting": "[11]", "result": 14, "unit": "%"},
      {"measurement": "Cmax (maximum cytotoxicity), donor 3", "setting": "[11]", "result": 35, "unit": "%"},
      {"measurement": "EC50, autologous B-cell depletion, donor 1", "setting": "[11]", "result": 40, "unit": "nM"},
      {"measurement": "EC50, autologous B-cell depletion, donor 2", "setting": "[11]", "result": 6, "unit": "nM"},
      {"measurement": "EC50, autologous B-cell depletion, donor 3", "setting": "[11]", "result": 8, "unit": "nM"},
      {"measurement": "EC50", "setting": "[12]", "result": 44, "unit": "nM"},
      {"measurement": "EC50", "setting": "[13]", "result": 44, "unit": "nM"}
    ]}
  ]
}
